Laboratory results as given in the nanobody polyreactivity screen of Harvey et al. (2022).

Experiment: yeast display, Sf9 membrane polyspecificity reagent, FACS + sequencing; frameworks hold sequencing errors
Outline: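 Nanobodies from a synthetic yeast display library (Saccharomyces cerevisiae BJ5465), induced 36–48 hours with galactose, were stained 1 hour at 4 °C with 10% biotinylated, detergent-solubilized Sf9 membrane reagent, enriched on streptavidin microbeads, then FACS-sorted. Anti-HA (expression) and streptavidin (reagent binding) fluorescence set low and high (top ~1%) gates. Polyreactivity labels come from the gate of origin. Genes were colony-PCR amplified, MiSeq 2 × 250 sequenced and filtered by CDR length.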

| Sequence | polyreactivity (PSR sort gate) |
| --- | --- |
| QVQLVESGGGLVQAGGSLRLSCAASHANAIGWYRQAPGKERELVAAITYRGGSTYYADSVKGRFTISRDNAKNTVYLQMNSLKPEDTAVYYCNTDVYLYVYDFGYNYWGQGTQVTVSS | low polyreactivity |
| QVQLVESGGGLVQAGGSLRLSCAASGRTFTHNVMGRYRQAPGKERELVAGISSTGGSTYYADSVKGRFTISRDNAKNTVYLQMNSLKPEDTAVYYCAVIGYHYSAISPPSQTRQGYDYWGQGTQVTVSS | low polyreactivity |
| QVQLVESGGGLVQAGGSLRLSCAASGFTFRLYTMGWYRQAPGKERELVAAITYSGDSTYYADSVKGRFTISRDYAKNTVYLQMNSLKPEDTAVYYCAARKYYARYYWGQGSQVTVSS | high polyreactivity |
| QVQLVESGGGIVQAGRSLRLSCAASGRTFHGYAMGWYRQAPGKERELVAAITGTGGRTYYAESVKGRFTISRDKAKNTVYLQMNSLKPEDTAVYYCAARPWIKSGYWGQGTQVTVSS | high polyreactivity |
| QVQLVESGGGLVQAGGSLRLSCAASGNIFESYGMGWYRQAPGKERELVATINTSSGSTYYADSVKGRFTISRDNAKNTVYLQMNILKPEDTAVYYCAAEWYPYPWGYGYWGQGTQVTVSS | low polyreactivity |
| QVQLVESGGGLVQAGGSLRLSCAASGSTFQWYAMGWNIQAPGKERELVAGITRTGSTYYADSVKGRFTISRDNAKNTVYLQMNSLKPEDTAVYYCAAKWHTASGKYYYWGQVTQVTVSS | high polyreactivity |
| QVQLVESGGGLVQAGGSLRLSCAASGRTFGRNAMGWYRPAPGKERELVATITRRGGSTYYADSVKGRFTISRDNAKNTVYLQMYSLKPEDTAVYYCNAGIWLGSFRQRFYYWGQGTQVTVSS | high polyreactivity |
| QVQLVESGGGLVQAGGSLRLSCAASGLIFTSYAMGWYRQAPGKERELVAAISRGVRTYYADSVKGRFTISRDNAKNTVYLQMNSLKPEDTAVYYCAAAKPPPGKYDYWGQGTQVTVSS | high polyreactivity |
| QVQLVESGGGLVQAGGSLRLSCAASGRTFGGNAIGWYRQAPGKERELVAAISSGARTNYADSVKGRFTISRDNAKNTVYLQMNSLKPEDNAVYYCAAGYPYSYRDYYYWVQGTQVTVSS | high polyreactivity |
| QVQLVESGGGLDQAGGSLRLSCASGRIFKKNAMGWYRQAPGNERELVAGITISGGRTYYADSVKGRFTISRDNAKNTVYLQMNSVKPEDTAVYYCNAGPDRRVSYYRLLDHWGQGTQVTVSS | low polyreactivity |
| QVQLVESVGGLVQAGGSLRLSCAASGRIFGVYAMGWYRQAPGKERELVAAISEGGGSTNYADSVKGRFTISRDNAKNTVYLQMNSLKPEDTAVYYCAATYRTGVRRYYSWGQGTQVTVSS | low polyreactivity |
| QVQLVESGGGLVQAGGSLRLSCAASGSIYSNAMGWYRQAPGKERELVAAISWRDGRTYYADSVKGRFTISRDNAKNTVYLQMNSLKPEDTAVYYCNADSRPLSTYYYWGQGTQVTVSS | low polyreactivity |
| QVQLVESGGGLVQAGGSLRLSCAASGSIFFPYAMGWYRQAPGKERELVAAIDTSSGSTYSADSVKGRFTISRDNAKNTVYLQMNSLKPEDTAVYYCAREALQYPGLKYNYWGQGTQVTVSS | low polyreactivity |
| QVQLVESGGGLVQAGGSLRLSCAASGRIFYGYTMGWYRQAPGKERELVAAISWSGGSTSYADSVKGRFTISRDNAKNTVYLQMNSLKPEDTAVYYCDVRYPGYRLYWGYTYDYWGQGTQVTVSS | high polyreactivity |
| QVQLVESGGGLVQAGGSLRLICAASGRIFYINAMGWYRQPPGKERELVAAITGGDGSTTYADSVKGRFTISRDNAKNTVYLQMNSLKPEDTAVYYCYADTARKYAESQFDHWGQGTQVTVSS | low polyreactivity |
| QVQLVESGGGLVQAGGSLRISCAASGSTFSLNAMGWYRQAPGKERELVAAISSRGTSTYYADSVKGRFTISRDNAKNTVYLQMNSLKPVDTAVYYCAAGKPKIPDDDYWGQGTQVTVSS | high polyreactivity |
| QVQLVESGGGLVQAGGSLRLSCAASGRIVSKYALGWYRQAPGKERELVAAISNGGSTNYADSVKGRFTISRDNAKNTVYLQMNSRKPEDTAVYYCAAGWPARYEEGYNYWGQGTQVTVST | low polyreactivity |
| QVQLVESGGGLVQAGGSLRLSCAASGRIFNYYAMGWYRQAPGKERELVATISRNGGRTYYADSVKGRFTISRDNAKNTVYLQMNSLKPEVTAVYYCATDGLYRYDYWGQGTQVTVSS | high polyreactivity |
| QGHLVESGGGLFQAGGSLRLSCAASGSILSYYALGRYRQAPGKEMEMVAVINSGGRTNYADAVKGRFTISRDNAKYTVYLQMNSLKTEDTAVYDCAAQGYFVDRAGRYYRVDYRGQGTQVTVSS | high polyreactivity |
| QVQLVESGGGLVQAGGSLRLSCAASGRTFGYYAMGWYRQAPGKERELVAAITGSGGSTYYADSVKGRFTISRDNAKNTVYLQMNSLKPEDTAVYYCAVESVRTRGWIRLDYWGQGTQVTVSS | high polyreactivity |
| QVQLVESGGGLVQPGGSLRLSCAASGSIFYCNAMGSYRQAPGKEREFVAGITTSGGSTYYADSVKGRFTISRDNAKNTVYLQMNSLKPDDTAVYYCNKVWVYAVTPSSWYKYGSWGQGNQVTVSS | low polyreactivity |
| QVQLVESGGGLVQAGGSLRLSCAASGSIFNYYAMGWYRQAPGKERELVAGITTSGGSTYYADSVKGRFTISRDNAKNTVYLQMISLKPEDTAVYYCAAYDYISSTYFLDDYWGQGTQVSVSS | low polyreactivity |

| Sequence | polyreactivity (PSR sort gate) |
| --- | --- |
| QVQLVESGGGLVQAGGSLRLSCAASGSILRLYVMGWYIQAPGKDRELVADISDRGGSTYYADSVKGRFTISRDNAKNTVYLQMNSLKPEDTAVYYCAAEWGQRGGGGYYYWGQGTQVTVSS | low polyreactivity |
| QVQLVESGGGLVQAGGSLRLSCAASGRTFRRYFMGWYRQAPGKERELVAAISGGGGSTYYAGSVKGRFTISRDNAKNTVYLQMNSLKPEDTAVYYCAARIGWYQYWGYPTSYGYWGQGTQVTVSS | high polyreactivity |
| QVQLVESGGGLVQAGGSLRLSCAASGRIFGVNAMGWYRQAPGKERELVAAINYSGGRTSYADSVKGRFTISRDNEKNTVYLQMKSLKPEDTAVYYCAKYGLRGGYLYYYWGQGTQVTVSS | high polyreactivity |
| QVQLVETGGGLVQAGGSLRLSCAPSGSIYYINAMGWYRQAPGKERELVAAIRSGGSTNYADSVKGLFTISRDNAKNTVYLQMNSLKPEDTAVYYCNARSRSYVPYYYWGQGTQVTVSS | high polyreactivity |
| QVQLVESGGGLVQAGGSLRLSCAASGSTFSQNAMGWYRQAPGKERELVAVISSSGGRTNYADSVKGRFTISRDNAKNTVYLQMNSLKPEDTAVYYCAKRLRVLYYYWGQGTQVTVSS | high polyreactivity |
| QVQLVESGGGLVQAGGSLRLSCAAYGSTFYHKAMGWYRQAPGKERELVARITRGGSTDYADSVKGRFTISRDNAKNTVYLQMNSRKPEDTAVYYCAAAIGHFERFYWGQGTQVTVSS | low polyreactivity |
| QVQIVESGGGLVQAGGSLRLSCAASGRIFGFNAMAWYRQAPGKERELVAAISWSSGRTYYADSVKGRFTISRDNAKNTVYLQMNSLKPEDTAVYYCAADQWGGGDDYWGQGTQVTVSS | high polyreactivity |
| QVQLVESGGGLVQAGGSLRLSCAASGFIFGYYAMGWYRQAPGKERDLVAAITSGTGTNYADSVKGRFTISRDNAKISVYLQMIRLKPEDTAVYYCAAYYTWLSEFGYWGQGTQVTVSS | low polyreactivity |
| QDQLVESGGGLVQAGGSLRLSCAASRLTFYVYAMGWYRQAPGKERELVAAISGRGGRTYYADSVKGRFTISRDNAKNTVYLQMNSLKPEDTAVYDCAPRYPRYRYVEYGYNYWGQGTQVTVSS | high polyreactivity |
| QVQHVESGGGLVQAGGSLRLSCAASGSIFGTYAMGWYRQAPGKERELVAAIRWSSGSTYYADSVKGRFTISRDNAKYTVYLLMNSLKPEDTAVYYCNAEYVYYWLGATFGYWGQGTQVTVSS | high polyreactivity |
| QVQLVESGGGLVQAGGSLRLSCAAYGRIFFYYVMGWYRQAPGNERELVAGITRGGISNYADSVKGRFTISRDNAKNTVYLQMNSLKPEDTAVYYCAAAYYRDSDRRYNYWGQGTQVTVSS | high polyreactivity |
| QVQLVESGGGLVQAGGSLRLSCAASGSTFEYNAMGWYRQAPGKERELVASSTNYADSVKGRFTISRDNAKNTVYLQMNSLIPEDTAVYYCAREQGVNRNHDYWGQGTQVTVSS | low polyreactivity |
| QVQLVESGGGLVQAGGSLRLSCAASGRIFRVYAMGWYRQAPGKERELVAAITSGGTTYADSVKGRFTISRDYAKNTVYLQMNSLKPEDTAVYYCAARYYIHRGYDYDYWGQGTQVTVSS | high polyreactivity |
| QVQLVESGGGLVQAGGSLRLSCAASGRIFYSYAMGWYRQAPGKERELVATISRRGGSTYYADSVKGRFTISRDNAKITVYLQMNSLKPEDTAVYYCNKGIPTRSVRSYDYWGQGTQVTVSS | high polyreactivity |
| QVQLVESGGGLVQAGGSLRLSCAASGSTFDRYAMGWYRQAPGKERELVAAISWSAGRTYYADTVKARFTISRDYAKNTVYLQMNSLKPEDTAVYYCAADQIVSGTYDYYWGQGTQVTVSS | low polyreactivity |
| QVQLVESGGGLVQAGGSLRLSCAASGRIFTYYAMGWYRQAPGKERELVAAITGSGTSTYYADSVKGRFTISRDNAKNTVYLQMNSLKPEDTAVYYCAARNSYSRYYYWGQGTQVTVSS | high polyreactivity |
| QVQLVESGGGLVQAGGSLRLSCAASGNTFPAYAMGWYRQAPGKERELVATISWSTGSTNYADSVKGRFTISRDIAKNTVYLQMNSLKPEDTAVYYCNKELYDFKDRNLKAFLLRIFDSWGQGTQVTVSS | low polyreactivity |
| QVQLVESGGGLVQAGGSLRLSCAASGSIFGDYVMGWYRQAPGKERELVAAITSATSTYYADSVKGRFTISRDNAKNTVYLQINSLKPEDTAVYYCNADATYPLWPNIWYDYDYWGQGTQVTVSS | low polyreactivity |
| QVQLVESGGGLVQAGGSLRLSCASSGNIFVPNAMGGYRQAPGKERELVAAIRRGGSTNYADSVKGRFTISRDNAQNTVDGQMNSLKPEDTAVYYCAKSRVSFTDLEGYYWGQGTQVTVSS | low polyreactivity |
| QVQLVESGGGLVQAGGSLRLSCAAAGSNFLGYAMGWYRQAPGKERELVANITSSGSTSYADSVKGRFTISRDNAKNTVYLQMNSLKPEVTAVYYCAARFRRTYDYWGQGTQVTVSS | high polyreactivity |
| QVQLVESVGGLVQAGGSLRLSCAASGRTFDSNAMGWYRQAPGKERELVAAISYSGGSTYYADSVKGRFTISRDNAKNTVYLQMNSLKPEDTAVYYCNAGAVHKKPARDYWGQGTQVTVSS | low polyreactivity |
